From patent US20250215059A1

Legend:
[1] = molecular target: tau aggregates in HEK293 tau biosensor cells (4R repeat domain of tau (K18) with the P301S mutation fused to CFP or YFP, seeded with clarified tau mouse brain homogenate) (UniProt P10636); assay: Halo imaging, colocalization with cytoplasmic tau aggregates (FIG. 5D)
[2] = molecular target: tau aggregates in HEK293 tau biosensor cells (4R repeat domain of tau (K18) with the P301S mutation fused to CFP or YFP, seeded with clarified tau mouse brain homogenate) (UniProt P10636); assay: Halo imaging, colocalization with cytoplasmic tau aggregates, 5 images
[3] = molecular target: tau aggregates in HEK293 tau biosensor cells (4R repeat domain of tau (K18) with the P301S mutation fused to CFP or YFP, seeded with clarified tau mouse brain homogenate) (UniProt P10636); assay: Halo (JF646) imaging; intensity in aggregate over adjacent region, 5 aggregates
[4] = molecular target: tau aggregates in HEK293 tau biosensor cells (4R repeat domain of tau (K18) with the P301S mutation fused to CFP or YFP, seeded with clarified tau mouse brain homogenate) (UniProt P10636); assay: Halo (JF646) imaging; intensity in aggregate over adjacent region, five aggregates
[5] = molecular target: tau aggregates in HEK293 tau biosensor cells (4R repeat domain of tau (K18) with the P301S mutation fused to CFP or YFP, seeded with clarified tau mouse brain homogenate) (UniProt P10636); assay: Halo (JF646) imaging in seeded HEK293 tau biosensor cells; mean Halo intensity in aggregates over that of the compartment

Sequence of tau aggregates in HEK293 tau biosensor cells (4R repeat domain of tau (K18) with the P301S mutation fused to CFP or YFP, seeded with clarified tau mouse brain homogenate) (P10636 561-689 P618S): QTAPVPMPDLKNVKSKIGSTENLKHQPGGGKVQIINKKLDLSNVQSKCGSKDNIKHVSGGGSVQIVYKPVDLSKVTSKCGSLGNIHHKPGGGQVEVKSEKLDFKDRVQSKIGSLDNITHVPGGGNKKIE

Row | percentage of cytoplasmic tau aggregates with recruitment [1] [%] | percentage of cytoplasmic tau aggregates positive for the construct [2] [%] | mean enrichment in cytoplasmic tau aggregates [3] | mean enrichment in cytoplasmic tau aggregates [4] | mean enrichment in tau aggregates [5] | Substance
1 | > 90 | 96 | 5.46 | – | – | 42-polyserine-halo
2 | – | – | – | 2.5 | – | Frag_1-Halo (SRRM2 a.a. 2606-2752)
3 | – | – | 1.19 | – | – | Halo tagged 20 serine repeat

Second part, the substance before the results:

Row | Substance | percentage of cytoplasmic tau aggregates with recruitment [1] [%] | percentage of cytoplasmic tau aggregates positive for the construct [2] [%] | mean enrichment in cytoplasmic tau aggregates [3] | mean enrichment in cytoplasmic tau aggregates [4] | mean enrichment in tau aggregates [5]
4 | Frag_2-Halo (SRRM2 a.a. 2458-2752) | > 90 | 98 | – | 4.3 | –
5 | SRRM2_FL-Halo (from UniProt Q9UQ35 1-2748) | – | 62 | – | – | 2.57
